This is an account of results in patent US8415393B2, “Anti-bacterial drug targeting of genome maintenance interfaces” (Wisconsin Alumni Research Foundation, priority 2007, dated 2013).

Where no end group is shown, it is not given here. fluorescein = fluorescein moiety attached to the N-terminus of the peptide (N-terminal fluorescein label) A value given as a limit tells only on which side of the number the result lay.

What all share (assay): fluorescence anisotropy equilibrium binding (Kd,app), ExoI variant titrated into fluorescein-labeled peptide
In general terms: In fluorescence polarisation assays a small probe gives low polarisation when free and higher when bound to something large.

The target of one assay is T1, ExoI Glu318Ala variant (Escherichia coli, UniProt P04995 1-475).
T1 construct: also called E318A; Glu318 variant
T1 sequence: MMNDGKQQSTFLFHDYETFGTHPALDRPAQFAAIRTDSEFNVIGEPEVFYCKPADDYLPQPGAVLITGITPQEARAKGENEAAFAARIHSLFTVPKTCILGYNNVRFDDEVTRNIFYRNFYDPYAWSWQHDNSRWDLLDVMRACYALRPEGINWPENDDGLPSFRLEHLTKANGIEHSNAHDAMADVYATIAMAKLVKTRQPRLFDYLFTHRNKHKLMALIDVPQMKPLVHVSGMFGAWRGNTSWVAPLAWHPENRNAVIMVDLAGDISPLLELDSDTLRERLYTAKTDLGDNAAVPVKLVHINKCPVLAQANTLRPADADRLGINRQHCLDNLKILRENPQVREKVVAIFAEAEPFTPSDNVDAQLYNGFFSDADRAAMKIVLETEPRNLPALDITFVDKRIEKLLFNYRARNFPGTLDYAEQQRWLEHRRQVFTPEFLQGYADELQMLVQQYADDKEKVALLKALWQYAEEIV

Another assay deals with T2, ExoI Arg327Ala variant (Escherichia coli, UniProt P04995 1-475).
T2 construct: also called R327A
T2 sequence: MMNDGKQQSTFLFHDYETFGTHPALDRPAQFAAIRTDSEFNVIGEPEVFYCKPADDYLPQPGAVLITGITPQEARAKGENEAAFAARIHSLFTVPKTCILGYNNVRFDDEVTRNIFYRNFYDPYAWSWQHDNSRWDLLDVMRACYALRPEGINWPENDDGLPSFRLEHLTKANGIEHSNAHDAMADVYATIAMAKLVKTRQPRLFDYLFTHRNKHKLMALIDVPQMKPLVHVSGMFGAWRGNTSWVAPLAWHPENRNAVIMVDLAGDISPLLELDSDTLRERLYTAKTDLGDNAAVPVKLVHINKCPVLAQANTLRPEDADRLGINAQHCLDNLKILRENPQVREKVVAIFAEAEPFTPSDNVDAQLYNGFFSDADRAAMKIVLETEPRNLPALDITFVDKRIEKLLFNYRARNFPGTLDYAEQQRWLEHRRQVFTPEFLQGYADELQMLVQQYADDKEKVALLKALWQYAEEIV

For the next assay, the target named is T3, ExoI Arg338Ala variant (Escherichia coli, UniProt P04995 1-475).
T3 construct: basic ridge residue; also called R338A; Arg338 variant
T3 sequence: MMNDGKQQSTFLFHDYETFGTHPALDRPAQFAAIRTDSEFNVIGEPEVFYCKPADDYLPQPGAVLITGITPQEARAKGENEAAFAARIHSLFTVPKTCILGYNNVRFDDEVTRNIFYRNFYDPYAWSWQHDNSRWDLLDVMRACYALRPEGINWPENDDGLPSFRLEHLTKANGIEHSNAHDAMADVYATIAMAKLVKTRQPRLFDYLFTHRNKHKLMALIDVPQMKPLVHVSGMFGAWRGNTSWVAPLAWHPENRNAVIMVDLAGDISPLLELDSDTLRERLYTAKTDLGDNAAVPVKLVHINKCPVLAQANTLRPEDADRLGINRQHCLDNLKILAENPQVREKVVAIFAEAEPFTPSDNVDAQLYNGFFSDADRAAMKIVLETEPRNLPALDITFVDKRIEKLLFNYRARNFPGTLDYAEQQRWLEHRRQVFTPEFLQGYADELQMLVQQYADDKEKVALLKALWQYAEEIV

The next assay has as its target T4, ExoI Tyr207Ala variant (Escherichia coli, UniProt P04995 1-475).
T4 construct: also called Y207A; Tyr207 variant
T4 sequence: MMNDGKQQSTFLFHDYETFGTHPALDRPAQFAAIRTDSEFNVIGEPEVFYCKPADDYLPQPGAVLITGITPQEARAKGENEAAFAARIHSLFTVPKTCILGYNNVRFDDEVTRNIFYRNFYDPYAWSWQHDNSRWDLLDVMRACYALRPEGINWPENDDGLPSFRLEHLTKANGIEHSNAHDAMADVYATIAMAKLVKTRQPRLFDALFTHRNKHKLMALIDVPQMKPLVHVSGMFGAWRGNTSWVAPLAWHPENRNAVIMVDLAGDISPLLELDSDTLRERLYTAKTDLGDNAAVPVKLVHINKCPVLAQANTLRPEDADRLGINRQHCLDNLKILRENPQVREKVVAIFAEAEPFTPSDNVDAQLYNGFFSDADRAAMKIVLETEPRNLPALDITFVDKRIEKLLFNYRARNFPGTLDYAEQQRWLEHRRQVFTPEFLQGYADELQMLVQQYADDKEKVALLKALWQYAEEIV

Another assay addresses T5, ExoI Glu150Ala variant (Escherichia coli, UniProt P04995 1-475).
T5 construct: also called E150A; Glu150 variant
T5 sequence: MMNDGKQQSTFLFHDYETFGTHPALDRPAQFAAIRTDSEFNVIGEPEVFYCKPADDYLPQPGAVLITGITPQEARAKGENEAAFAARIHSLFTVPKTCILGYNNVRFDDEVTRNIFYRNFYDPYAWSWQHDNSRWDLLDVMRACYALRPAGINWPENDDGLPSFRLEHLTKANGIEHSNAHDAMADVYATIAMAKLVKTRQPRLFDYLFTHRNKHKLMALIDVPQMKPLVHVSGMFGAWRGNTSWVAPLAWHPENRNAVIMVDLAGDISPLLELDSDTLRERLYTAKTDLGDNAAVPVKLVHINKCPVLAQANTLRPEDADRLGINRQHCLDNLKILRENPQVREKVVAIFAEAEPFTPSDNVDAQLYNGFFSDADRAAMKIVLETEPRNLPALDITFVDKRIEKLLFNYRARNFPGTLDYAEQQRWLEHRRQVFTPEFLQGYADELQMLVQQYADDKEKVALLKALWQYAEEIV

B1: fluorescein-labeled SSB C-terminal peptide (fluorescein-WMDFDDDIPF) (peptide)
peptide: fluorescein-WMDFDDDIPF
notes: also called F-SSB-Ct; F-WT
As to B1, the Kd with ExoI Glu318Ala variant is 80 nM; with ExoI Arg327Ala variant, 270 nM; with ExoI Arg338Ala variant, 398 nM; in the assay with ExoI Tyr207Ala variant, > 1000 nM; in the assay with ExoI Glu150Ala variant it was 72 nM.
